Patent US11466286B2, “Methods and compositions for conferring and/or enhancing herbicide tolerance using protoporphyrinogen oxidase or variant thereof” (FarmHannong Co., Ltd., priority 2016, dated 2022)

Legend:
[1] = test system: BT3 (ΔPPO) E. coli with CyPPO10m-6 (E225G, G258S, Q266L, T336I, V356F, F360M, A364D, R406G, W419R; SEQ ID NO: 131); experiment: Growth of BT3 with error-prone PCR mutant of CyPPO10; format: cell-based; conditions: up to 200 μM herbicide
[2] = test system: soybean transformed with CyPPO10 A167L+F360M; experiment: Herbicide tolerance of soybean; format: in vivo; conditions: T1, 150 μM saflufenacil spray, 5 days
[3] = test system: CyPPO13 (Synechococcus sp. JA-3-3Ab PPO, SEQ ID NO: 4) variant F373M, MBP fusion; experiment: PPO inhibition assay; format: biochemical; conditions: herbicide 0-5,000 nM, 50 μM substrate
[4] = test system: CyPPO13 (Synechococcus sp. JA-3-3Ab PPO, SEQ ID NO: 4) variant F373L, MBP fusion; experiment: PPO inhibition assay; format: biochemical; conditions: herbicide 0-5,000 nM, 50 μM substrate
Experimental: (§1) The enzyme activities of PPO protein and PPO protein variants were examined, and inhibition assay by PPO-inhibiting herbicides was conducted. It was confirmed that the PPO protein has low water-solubility, but in case of being expressed as a fusion protein with MBP (maltose binding protein) (MBP-PPO), the PPO protein is able to be stably expressed as water-soluble form. Therefore, the wild type and variant proteins which were expressed in the form of fusion protein with MBP were used in the present test (refer to FIG. 4).
(§2) At first, a substrate of PPO protein, Protoporphyrinogen IX was synthesized. This process was performed in the space where nitrogen gas is streamed. 6 mg of protoporphyrin IX was dissolved in 20% (v/v) EtOH 20 ml, and stirred under dark condition for 30 minutes. The obtained protoporphyrinogen IX solution was put into a 15 ml screw tube in an amount of 800 and flushed with nitrogen gas for 5 minutes. To this, 1 g of sodium amalgam was added and vigorous shaking was performed for 2 minutes. The lid was open to exhaust hydrogen gas in the tube. Thereafter, the lid was closed and incubated for 3 minutes. The […] was filtered using syringe and cellulose membrane filter. To 600 μl of the obtained […], 2M MOPS [3-(N-morpholino)propanesulfonic acid] was added in an amount of approximately 300 thereby adjusting pH to 8.0. To determine the enzyme activity of PPO protein, a reaction mixture was prepared with the following composition (based on 10 ml): 50 mM Tris-Cl (pH 8.0); 50 mM NaCl; 0.04% (v/v) Tween 20; 40 mM glucose (0.072 g); 5 units glucose oxidase (16.6 mg); and 10 units catalase (1 μl).
(§3) Two hundred microliters (200 μl) of reaction mixture containing a purified PPO protein were placed in 96 well plates, and preincubated for 30 min at room temperature to reduce the oxygen concentration by the reaction of glucose oxidase-catalase. The mineral oil was layered and then the reaction was initiated by adding the substrate, […], to a final concentration of 50 μM. The reaction proceeded at room temperature for 30 min and the fluorescence of protoporphyrin IX was measured using Microplate reader (Sense, Hidex) (excitation: 405 nm; emission: 633 nm). To calculate the PPO enzyme activity, protoporphyrinogen IX solution was kept open in the air to oxidize the solution (overnight). To this, 2.7N HCl was added, and the absorbance at 408 nm was measured. A standard curve was generated using standard protoporphyrin IX, and the PPO activity was measured by calibration of protoporphyrin IX using the standard curve of protoporphyrin IX.
(§4) The final concentration of each herbicide was as follows: […]

[5] = test system: CyPPO13 (Synechococcus sp. JA-3-3Ab PPO, SEQ ID NO: 4) variant F373I, MBP fusion; experiment: PPO inhibition assay; format: biochemical; conditions: herbicide 0-5,000 nM, 50 μM substrate
Experimental: as §1, §2, §3, §4

[6] = test system: A. thaliana T3 lines with CyPPO10 wild type or mutants (F360M, F360I, F360L, F360C, A167C), CyPPO13 wild type or mutants (F373M, F373C, F373I, A177C …); experiment: Seed germination of A. thaliana transformants on herbicide media; format: in vivo, Arabidopsis thaliana; conditions: 25 μM glufosinate, 7 days after sowing
A. thaliana [7] = experiment: Herbicide spray on A. thaliana transformants, injury level judged at the 7th day; format: in vivo, Arabidopsis thaliana; conditions: A. thaliana transformants T2, tiafenacil 25 μM spray
CyPPO10 = experiment: PPO enzyme activity and IC50 by herbicides, CyPPO10 wild type and variants (MBP-PPO fusion); format: biochemical, Thermosynechococcus elongatus BP-1; conditions: PPO enzyme activity of CyPPO10 protein, wild type = 100
Method in brief: (§5)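 MBP-fused wild-type and variant CyPPO10 or CyPPO13 were expressed in E. coli BL21(DE3) and purified. After a 30 min oxygen-depleting preincubation with glucose oxidase-catalase in 50 mM Tris-Cl pH 8.0, 50 mM NaCl and 0.04% Tween 20, reactions used 50 μM substrate for 30 min at room temperature. Protoporphyrin IX fluorescence (ex 405/em 633 nm) was quantified against a standard curve.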

CyPPO13 = experiment: PPO enzyme activity and IC50 by herbicides, CyPPO13 wild type and variants (MBP-PPO fusion); format: biochemical, Synechococcus sp. JA-3-3Ab; conditions: PPO enzyme activity of CyPPO13 protein, wild type = 100
Method in brief: as §5

[8] = test system: PPO-deficient BT3 E. coli (ΔPPO); experiment: Tiafenacil tolerance of BT3 E. coli transformed with CyPPO10, CyPPO13 or AtPPO1 genes (pACBB vector); format: cell-based; conditions: tiafenacil 0 μM; PPO function complementation
Experimental: After transforming PPO-deficient BT3 E. coli (ΔPPO) with CyPPO10 or CyPPO13, the transformed BT3 (ΔPPO) was cultured on LB agar plates containing PPO-inhibiting herbicide to examine the growth level of the transformed BT3 (ΔPPO). BT3 (ΔPPO) strain was obtained from Hokkaido University (Japan). The BT3 (ΔPPO) strain is deficient in hemG-type PPO and has kanamycin tolerance (refer to “Watanabe et al., Dual targeting of spinach protoporphyrinogen oxidase II to mitochondria and chloroplasts by alternative use of two in-frame […], JBC 2001 276(23):20474-20481; Che et al., Molecular Characterization and Subcellular Localization of Protoporphyrinogen Oxidase in Spinach Chloroplasts, Plant Physiol. 2000 September; 124(1):59-70”).
The cloned plasmid was added to 100 μl of BT3 competent cell (Hokkaido University; Japan) respectively, thereby transforming by a heat shock method. The transformed E. coli with each PPO gene was cultured in LB (Luria-Bertani) agar media comprising Chloramphenicol (Duchefa).
For seed culture of E. coli transformed with respective genes, each single colony of E. coli transformant as provided above was cultured in 3 ml of LB broth containing chloramphenicol overnight (220 rpm, 37° C.), and 50 to 100 μl were subcultured in a new 3 ml of LB broth, and they were cultured until absorbance (OD600) became 0.5 to 1, and they were diluted with LB broth to absorbance (OD600) of 0.5. The diluted solution was serially diluted again 5 times by a factor of one tenth with LB broth. […] The LB Agar media were incubated at 37° C., under light condition, and level of inhibiting growth was observed after 16 to 20 hours of incubation.
Plant physiol. 2003 133:736-747).

A. thaliana [9] = experiment: Seed germination of A. thaliana transformants on ½ MS media containing herbicides; format: in vivo, Arabidopsis thaliana; conditions: T3 lines; 25 μM glufosinate, 25 μM glufosinate+70 nM tiafenacil, or 25 μM glufosinate+30 nM tiafenacil+40 nM saflufenacil; 7 days after sowing
Text: T3 generation seeds of each transformant were sown in ½ MS media containing herbicides. Col-0 ecotype (wild type Arabidopsis) seeds were used as a control. The kinds of herbicides and concentration are as follows:
In FIGS. 31a to 31c, 10-3 refers to CyPPO10 wild type, 10FM-4-7 to the CyPPO10 F360M transgenic line, 10FL-1-9 to the CyPPO10 F360L transgenic line, 10FC-3-5 to the CyPPO10 F360C transgenic line, 10AC-5-4 to the CyPPO10 A167C transgenic line, 13-1 to CyPPO13 wild type, 13FM-3-1 to the CyPPO13 F373M transgenic line, 13FC-1-1 to the CyPPO13 F373C transgenic line, 13FI-2-1 to the CyPPO13 F373I transgenic line, 13AC-1-3 to the CyPPO13 A177C transgenic line, CyPPO13_ALFL to the CyPPO13 A177L+F373L transgenic line, and CyPPO13_ALFI to the CyPPO13 A177L+F373I transgenic line, respectively.

With `CC(C)N(C)S(=O)(=O)NC(=O)c1cc(-n2c(=O)cc(C(F)(F)F)n(C)c2=O)c(F)cc1Cl` [Saflufenacil] the cell viability [1] was “cell viability similar to that of cells with wild type CyPPO10”, the damage level [2] was “no damage” and the IC50 [3] was 481 nM. The IC50 [4] was 1470 nM and the IC50 [5] was 1480 nM.

`CP(=O)(O)CCC(N)C(=O)O` (stereo not shown) [glufosinate] was tested, and the seed germination [6] was “germinated”.

B1: CyPPO10 A167L + F360M: CyPPO10 (SEQ ID NO: 2) PPO variant (protein)
chain: MIEVDVAIVGGGLSGLSVAWRLQRSAPHYSGVLLEASDRLGGNITTQAAEGFVWELGPNSFAPTPALLQLIAEVGLHSELIRGDRHLPRYIYWRGELYPLEPTRPLALATSNLLSPWGKVRAALGALGFVPPYLGSGDESVDSFFRRHLGQEVAERLVAPFVSGVYLGDPQQLSAAAAFRRIAQLEKLGGSLIAGALRLRRQQPPQPKPPAQVQMRPGELGSFREGLAALPRAIAQQLKAPLHLQTPVEAITPEPKGGYLLRSGEQTWHARSVVLATPAYQTAELVAPFQPAIARALATIPYPTVACVVLAYPAGLGRSVRPGFGVLVPRGQGIRTLGTIWSSCLFPQRTPAGWQVFTSMIGGATDPDLASLREEAIVEQVQQDLTRLLDLPAAKARLLGMKVWRRAIPQYIVGYPQQWQQVTHALTQTPGLFLCSNYAEGVALGDRVEHGNRTAAAVAAYLAGGQS
modifications: Synthetic CyPPO10
For B1, the Average injury index (A. thaliana [7]) was 2 (Over 20% and less than 30% of the plant was scorched) and the “Activity (%)” value (CyPPO10) was 80%.

B2: CyPPO10 A167C + F360I: CyPPO10 (SEQ ID NO: 2) PPO variant (protein)
chain: MIEVDVAIVGGGLSGLSVAWRLQRSAPHYSGVLLEASDRLGGNITTQAAEGFVWELGPNSFAPTPALLQLIAEVGLHSELIRGDRHLPRYIYWRGELYPLEPTRPLALATSNLLSPWGKVRAALGALGFVPPYLGSGDESVDSFFRRHLGQEVAERLVAPFVSGVYCGDPQQLSAAAAFRRIAQLEKLGGSLIAGALRLRRQQPPQPKPPAQVQMRPGELGSFREGLAALPRAIAQQLKAPLHLQTPVEAITPEPKGGYLLRSGEQTWHARSVVLATPAYQTAELVAPFQPAIARALATIPYPTVACVVLAYPAGLGRSVRPGFGVLVPRGQGIRTLGTIWSSCLFPQRTPAGWQVFTSIIGGATDPDLASLREEAIVEQVQQDLTRLLDLPAAKARLLGMKVWRRAIPQYIVGYPQQWQQVTHALTQTPGLFLCSNYAEGVALGDRVEHGNRTAAAVAAYLAGGQS
modifications: Synthetic CyPPO10
B2 was tested, and the Average injury index (A. thaliana [7]) was 2 (Over 20% and less than 30% of the plant was scorched) and the “Activity (%)” value (CyPPO10) was 48%.

B3: CyPPO13 WT: PPO derived from Synechococcus sp. JA-3-3Ab strain, amino acid sequence SEQ ID NO: 4 (protein)
chain: MNPATPEPLNAEVVVIGAGISGLTLAWRLQQGLSARGGSPQAVLLAEASSRVGGCISTQSKDGYRWEEGPNSFTPTPALLNLIAEVGLTDQLVLADAKLPRYIYWEGALLPVPLSPAAALGSRLLSVGGKLRALQGLLGFVPPPPGHEETVRQFFRRQLGSEVAERLVEPFTSGVYAGDPDQLSAVAAFPRVAGLEERYGSLFAGALQALRQRPQPSPAAIQPPPKRGQLGNLRQGLQQLPEALAQKLGDSLRLGWRALQLKRAGELYWVGFETPEGSRWVAARQVVLALPAYEAAALLQELNPPASQLLAEILYPPVAVVALAYPQEALPQPLRGFGHLIPRSQGLRTLGTIWASCLFPERAPQGYHSFLSFLGGATDAALARRRGIPPIPALSPEERAQIAHAELSQVLLTRRAEPVYLGERLWPRAIPQYTLGHRQRIAQVQAHLASQTPGIWVCANYLDGVALGDCVRRAEALAQQLLSQV
modifications: Synthetic CyPPO13
In the case of B3, the “Activity (%)” value (CyPPO13) is reported as 100%, the “Growth of BT3 transformant on medium containing no herbicide” value [8] is reported as “recovered” and the “Seed germination in media containing herbicides” value (A. thaliana [9]) is reported as “germinated”.
